From the supplement of paper PMC7877785
± gives the uncertainty stated by the source.

Experiment: self-splicing fitness, log relative to wild type (ln ratio); higher = more splicing; Tetrahymena group I intron in knt gene, E. coli kanamycin selection, DiMSum; sequences stand for … in CUCUCU…GGAGGGAAAAGUUAUCAGGCAUGCACCUGGUAGCUAGUCUUUAAACCAAUAGAUUGCAUCGGUUUAAAAGGCAAGACCGUCAAAUUGCGGGAAAGGGGUCAACAGCCGUUCAGUACCAAGUCUCAGGGGAAACUUUGAGAUGGCCUUGCAAAGGGUAUGGUAAUAAGCUGACGGACAUGGUCCUAACCACGCAGCCAAGUCCUAAGUCAACAGAUCUUCUGUUGAUAUGGAUGCAGUUCACAGACUAAAUGUCGGUCGGGGAAGAUGUAUUCUUCUCAUAAGAUAUAGUCGGACCUCUCCUUAAUGGGAGCUAGCGGAUGAAGUGAUGCAACACUGGAGCCGCUGGGAACUAAUUUGUAUGCGAAAGUAUAUUGAUUAGUUUUGGAGUACUCGUGGUCG
In short: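 Pooled colonies went to amplicon sequencing on an Illumina HiSeq 2500 after six replicate transformations. The plates were LB agar with 100 μg/mL carbenicillin, 50 μM IPTG and 0.2% rhamnose, with or without 25 μg/mL kanamycin, incubated overnight at 37°C or 30°C. The E. coli BL21(DE3) library had all eight P1ex-region intron nucleotides randomised, the intron placed in the knt kanamycin-resistance gene on pET-22b(+). DiMSum fitness is the error-weighted combination of replicate fold changes, kanamycin against none, normalised to wild type.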

Sequence	self-splicing fitness (ln) (30 °C)	self-splicing fitness (ln) (37 °C)
GUUUAGCAAUAUUACGGGCG	-0.544 ± 0.2	-1.38 ± 0.21
GCCUAGCAAUAUUACGUGUG	-1.85 ± 0.057	-0.937 ± 0.065
CAUAAGCAAUAUUACGCUCG	-0.821 ± 0.11	-0.252 ± 0.12
GCCCAGCAAUAUUACGUAGU	-0.118 ± 0.051	-0.0932 ± 0.066
CGGUAGCAAUAUUACGGCUU	-0.935 ± 0.087	0.239 ± 0.12
UCCAAGCAAUAUUACGCCAA	-2.68 ± 0.21	-0.487 ± 0.22
AUUUAGCAAUAUUACGUCGG	-3.82 ± 0.4	-3.18 ± 0.32
CUGUAGCAAUAUUACGCGUA	-3.3 ± 0.3	-2.89 ± 0.25
AGUCAGCAAUAUUACGCGGA	-3.11 ± 0.26	-1.79 ± 0.18
AGGCAGCAAUAUUACGCGCU	-3.04 ± 0.15	-1.03 ± 0.1
GGUCAGCAAUAUUACGCUAC	-3.55 ± 0.28	-2.17 ± 0.16
UGCGAGCAAUAUUACGUGAU	-2.47 ± 0.23	-2.09 ± 0.4
CCGUAGCAAUAUUACGAGGA	-2.96 ± 0.24	-1.24 ± 0.18
AGCCAGCAAUAUUACGCAGU	-4 ± 0.2	-3.46 ± 0.21
GCUGAGCAAUAUUACGAUUC	-0.602 ± 0.1	-0.665 ± 0.11
GCCGAGCAAUAUUACGAAUG	-3.59 ± 0.3	-2.75 ± 0.27
CAUAAGCAAUAUUACGUAGA	-3.68 ± 0.13	-1.97 ± 0.12
CUGCAGCAAUAUUACGUUUA	-2.64 ± 0.19	-1.21 ± 0.19
CCCCAGCAAUAUUACGAGUA	-2.91 ± 0.12	-2.58 ± 0.14
UCCCAGCAAUAUUACGCUAA	-1.75 ± 0.11	-0.958 ± 0.091
CUGCAGCAAUAUUACGACCG	0.161 ± 0.088	0.198 ± 0.12
ACAUAGCAAUAUUACGCCUC		-1.29 ± 0.24
ACACAGCAAUAUUACGUGCG	-0.45 ± 0.044	-0.606 ± 0.063
GAUUAGCAAUAUUACGCAAA	-2.19 ± 0.18	-2.24 ± 0.19

Sequence	self-splicing fitness (ln) (30 °C)	self-splicing fitness (ln) (37 °C)
CUGAAGCAAUAUUACGACAA	-0.913 ± 0.13	0.0189 ± 0.19
ACGAAGCAAUAUUACGACCG	-0.458 ± 0.12	0.219 ± 0.14
GGCGAGCAAUAUUACGAAUC	-1.03 ± 0.051	-0.145 ± 0.067
UACGAGCAAUAUUACGCCUU	-3.54 ± 0.43	
UCCGAGCAAUAUUACGGGCG	-3.47 ± 0.35	-1.68 ± 0.36
ACGUAGCAAUAUUACGCCAC	-4.5 ± 0.39	-2.54 ± 0.44
GCCUAGCAAUAUUACGCGAC	-1.92 ± 0.19	-1.05 ± 0.27
UUAUAGCAAUAUUACGGGCG	-1.4 ± 0.15	-1 ± 0.2
UUCUAGCAAUAUUACGGGUU	-2.34 ± 0.17	-1.93 ± 0.24
CAACAGCAAUAUUACGGAUU	-2.92 ± 0.13	-1.94 ± 0.14
UUAGAGCAAUAUUACGGAGG	-2.3 ± 0.13	-1.84 ± 0.18
ACGUAGCAAUAUUACGACUG	-1.78 ± 0.13	-0.836 ± 0.15
UGAAAGCAAUAUUACGCUGG	-2.59 ± 0.16	-1.27 ± 0.19
GUACAGCAAUAUUACGACAA	-1.77 ± 0.14	-0.826 ± 0.12
UGCCAGCAAUAUUACGUAGA	-1.45 ± 0.056	-0.504 ± 0.065
UUAAAGCAAUAUUACGGUCG	0.224 ± 0.082	0.441 ± 0.095
AAUGAGCAAUAUUACGUAAG	-2.38 ± 0.22	-2.2 ± 0.23
AGGUAGCAAUAUUACGCGUC	-2.763 ± 0.023	-1.57 ± 0.037
GAUAAGCAAUAUUACGCAAG	-2.51 ± 0.25	-1.34 ± 0.21
AGAAAGCAAUAUUACGCAAA	-3.28 ± 0.26	-0.836 ± 0.13
AGUAAGCAAUAUUACGUAUG	-2.94 ± 0.29	-2.15 ± 0.24
AUUGAGCAAUAUUACGAAGA	-2.47 ± 0.25	-2.23 ± 0.35
UAAGAGCAAUAUUACGAUGG	-3.51 ± 0.21	-1.68 ± 0.16
